This series addresses T1, MBNL1 (isoform encoded by exons 1-4) (UniProt Q9NR56 1-269).
T1 sequence: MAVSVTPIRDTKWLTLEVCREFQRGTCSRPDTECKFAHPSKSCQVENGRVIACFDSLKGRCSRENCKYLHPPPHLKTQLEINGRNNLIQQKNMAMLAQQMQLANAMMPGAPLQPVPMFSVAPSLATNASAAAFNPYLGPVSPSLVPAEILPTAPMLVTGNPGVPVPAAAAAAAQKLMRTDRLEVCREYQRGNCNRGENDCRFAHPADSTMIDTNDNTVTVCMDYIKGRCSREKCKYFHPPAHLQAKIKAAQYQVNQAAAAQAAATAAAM
The series can be described thus: filter binding; 0-500 nM MBNL1; 0.5 nM oligomer; FBA: FBB (50 mM Tris-HCl pH 8.0, 1 mM MgCl2, 0.05% Tween 20) with 250 mM NaCl and 15 mM KCl, 37 C, 30 min, 30 ul. The following applies: protein: recombinant; tags: N-terminal GST; C-terminal His6; label: radiolabeled; single strand.

In the case of CAGCAGCA (XNA, all LNA, phosphodiester) [PO-LNA-CAG-8], the binding result was “no binding”.

Turning to CAGCAGCAGC (XNA, all LNA, phosphodiester) [PO-LNA-CAG-10], the binding result is “no binding”.

The values above are taken from paper PMC4381072, “Short antisense-locked nucleic acids (all-LNAs) correct alternative splicing abnormalities in myotonic dystrophy”.
